Consider two molecules from article PMC6917740.

The target in this test is T1, 12 amino acid peptide (HSET-N) labeled with biotin at the N-terminus (bio-…).
T1 sequence (peptide, biotin at the N-terminus): EDGLEPEKKRTR
As to the kind of experiment: SPR; BIAcore T200, 25 °C; biotinylated peptide immobilised on a Series S sensor chip SA at 10-40 RU; antibodies injected 3 min at 30 µl/min in HBS-EP (10 mM HEPES pH 7.4, 250 mM NaCl, 3 mM EDTA, 0.05% P-20); at least five concentrations; 1:2 binding model, which reflects the avidity effect; KD = …. For orientation: In SPR one partner is held on a chip, and binding of the other changes the refractive index at the surface.

B1: mouse 6C407 IgG2a/κ (antibody, V domains shown)
VH: EVQLQQSGAELVKPGASVKLSCTASGFNIKDTYIHWVKQRPEQGLEWIGRIDPANGNTKYDPKFQGKATITADTSSNTAYLQLSSLTSEDTAVYYCARGYGSRSAMDYWGQGTSVTVS
VL: DIVLTQSPASLAVSLGQRATISCRASKSVSTSGYSYMLWYQQKPGQPPKLLIYLASNLESGVPARFSGSGSGTDFTLNIHPVEEEDAATYYCQHSRELPWTFGGGTKLEIK
As a reminder, the koff is the rate constant with which the complex falls apart. The low end stands for a long-lived complex, the high end for a short-lived complex. Broadly, the kon is a measure of how fast the partners come together. A low value points to slower complex formation. B1: the Kd turned out to be 2.45 nM, the dissociation rate constant (koff) is 0.00138 s⁻¹ and the kon was 567000 M⁻¹ s⁻¹.

B2: chimeric mouse-chicken MC-6C407 IgY/λ (antibody, V domains shown)
VH: EVQLQQSGAELVKPGASVKLSCTASGFNIKDTYIHWVKQRPEQGLEWIGRIDPANGNTKYDPKFQGKATITADTSSNTAYLQLSSLTSEDTAVYYCARGYGSRSAMDYWGQGTSVTVS
VL: DIVLTQSPASLAVSLGQRATISCRASKSVSTSGYSYMLWYQQKPGQPPKLLIYLASNLESGVPARFSGSGSGTDFTLNIHPVEEEDAATYYCQHSRELPWTFGGGTKLEIK
Consider B2, for which the Kd was found to be 1.24 nM, the koff was determined as 0.000632 s⁻¹ and the kon turned out to be 511000 M⁻¹ s⁻¹.
